Molecular target: Echovirus 18 (E18) mature (full) virus particle, strain HeB15-254 (echovirus 18 (strain HeB15-254))
Assay: SPR; Biacore 3000, 25 C; biotinylated full E18 particles in PBS with Tween immobilised on streptavidin (SA) chips; FcRn or CD55 flowed at 31.25 nM to 2,000 nM; pH 7.4; 1:1 binding model

## soluble ectodomain of human neonatal Fc receptor (FcRn): FCGRT (A16-L282) with B2M (from UniProt P61769 21-119) (complex)
  Kd: 343 nM

— paper PMC9426509
